Test results published in patent US11306156.

Assays:
[1] = molecular target: D3H44 light chain Q124E_Q160E_T180E with N-terminal HA or FLAG tag; experiment: LCCA (SPR tag readout), L1:L2 DNA 1:3, normalized to 1:1; competing light chain m9
[2] = molecular target: D3H44 light chain Q124E_T180E with N-terminal HA or FLAG tag; experiment: as above
[3] = molecular target: D3H44 light chain Q124E_Q160E_T180E with N-terminal HA or FLAG tag; experiment: LCCA (SPR tag readout), L1:L2 DNA 1:9, normalized to 1:1; competing light chain m9
[4] = molecular target: D3H44 light chain Q124E_T180E with N-terminal HA or FLAG tag; experiment: LCCA (SPR tag readout), L1:L2 DNA 1:3, normalized to 1:1; competing light chain m12
[5] = molecular target: D3H44 light chain Q124K_T178R with N-terminal HA or FLAG tag; experiment: LCCA (SPR tag readout), L1:L2 DNA 1:3, normalized to 1:1; competing light chain m13
[6] = molecular target: D3H44 light chain Q124R_Q160K_T178R with N-terminal HA or FLAG tag; experiment: as above
[7] = molecular target: D3H44 light chain Q124R_T178K with N-terminal HA or FLAG tag; experiment: as above
[8] = molecular target: D3H44 light chain Q124R_T178R with N-terminal HA or FLAG tag; experiment: as above
[9] = molecular target: D3H44 light chain Q124E_T180E with N-terminal HA or FLAG tag; experiment: LCCA (SPR tag readout), L1:L2 DNA 1:3, normalized to 1:1; competing light chain m14
[10] = molecular target: D3H44 light chain Q124E_Q160E_T180E with N-terminal HA or FLAG tag; experiment: LCCA (SPR tag readout), L1:L2 DNA 1:3, normalized to 1:1; competing light chain m15
[11] = molecular target: D3H44 light chain Q124E_T180E with N-terminal HA or FLAG tag; experiment: as above
[12] = molecular target: D3H44 light chain Q124R_T178K with N-terminal HA or FLAG tag; experiment: LCCA (SPR tag readout), L1:L2 DNA 1:3, normalized to 1:1; competing light chain m18
[13] = molecular target: D3H44 light chain Q124R_T178R with N-terminal HA or FLAG tag; experiment: as above
[14] = molecular target: D3H44 light chain Q124E_T180E with N-terminal HA or FLAG tag; experiment: LCCA (SPR tag readout), L1:L2 DNA 1:9, normalized to 1:1; competing light chain m12
[15] = molecular target: D3H44 light chain Q124K_T178R with N-terminal HA or FLAG tag; experiment: LCCA (SPR tag readout), L1:L2 DNA 1:9, normalized to 1:1; competing light chain m13
[16] = molecular target: D3H44 light chain Q124E_Q160E_T180E with N-terminal HA or FLAG tag; experiment: LCCA (SPR tag readout), L1:L2 DNA 1:9, normalized to 1:1; competing light chain m15
[17] = molecular target: D3H44 light chain Q124R_T178K with N-terminal HA or FLAG tag; experiment: LCCA (SPR tag readout), L1:L2 DNA 1:9, normalized to 1:1; competing light chain m18
[18] = molecular target: D3H44 light chain Q124R_T178R with N-terminal HA or FLAG tag; experiment: as above
[19] = molecular target: D3H44 light chain Q124E_T178E with N-terminal HA or FLAG tag; experiment: LCCA (SPR tag readout), L1:L2 DNA 1:3, normalized to 1:1; competing light chain m9
[20] = molecular target: D3H44 light chain Q124E_T178E_T180E with N-terminal HA or FLAG tag; experiment: as above
[21] = molecular target: D3H44 light chain Q124E_V133D with N-terminal HA or FLAG tag; experiment: as above
[22] = molecular target: D3H44 light chain Q124E_T178E with N-terminal HA or FLAG tag; experiment: LCCA (SPR tag readout), L1:L2 DNA 1:9, normalized to 1:1; competing light chain m9
[23] = molecular target: D3H44 light chain Q124E_T178E_T180E with N-terminal HA or FLAG tag; experiment: as above
[24] = molecular target: D3H44 light chain Q124E_T180E with N-terminal HA or FLAG tag; experiment: as above
[25] = molecular target: D3H44 light chain Q124E_V133D with N-terminal HA or FLAG tag; experiment: as above
[26] = molecular target: D3H44 light chain Q124R_T178R with N-terminal HA or FLAG tag; experiment: LCCA (SPR tag readout), L1:L2 DNA 1:3, normalized to 1:1; competing light chain m10
[27] = molecular target: D3H44 light chain Q124R_T178R with N-terminal HA or FLAG tag; experiment: LCCA (SPR tag readout), L1:L2 DNA 1:3, normalized to 1:1; competing light chain m11
[28] = molecular target: D3H44 light chain Q124E_Q160E_T180E with N-terminal HA or FLAG tag; experiment: LCCA (SPR tag readout), L1:L2 DNA 1:3, normalized to 1:1; competing light chain m12
[29] = molecular target: D3H44 light chain Q124R_T178R with N-terminal HA or FLAG tag; experiment: LCCA (SPR tag readout), L1:L2 DNA 1:3, normalized to 1:1; competing light chain m16
[30] = molecular target: D3H44 light chain Q124K_T178R with N-terminal HA or FLAG tag; experiment: LCCA (SPR tag readout), L1:L2 DNA 1:3, normalized to 1:1; competing light chain m18
[31] = molecular target: D3H44 light chain T178R with N-terminal HA or FLAG tag; experiment: as above
[32] = molecular target: D3H44 light chain Q124E_Q160E_T180E with N-terminal HA or FLAG tag; experiment: LCCA (SPR tag readout), L1:L2 DNA 1:3, normalized to 1:1; competing light chain m19
[33] = molecular target: D3H44 light chain Q124R_T178R with N-terminal HA or FLAG tag; experiment: LCCA (SPR tag readout), L1:L2 DNA 1:9, normalized to 1:1; competing light chain m10
[34] = molecular target: D3H44 light chain Q124R_T178R with N-terminal HA or FLAG tag; experiment: LCCA (SPR tag readout), L1:L2 DNA 1:9, normalized to 1:1; competing light chain m11
[35] = molecular target: D3H44 light chain Q124E_Q160E_T180E with N-terminal HA or FLAG tag; experiment: LCCA (SPR tag readout), L1:L2 DNA 1:9, normalized to 1:1; competing light chain m12
[36] = molecular target: D3H44 light chain Q124R_T178R with N-terminal HA or FLAG tag; experiment: LCCA (SPR tag readout), L1:L2 DNA 1:9, normalized to 1:1; competing light chain m13
[37] = molecular target: D3H44 light chain Q124R_T178R with N-terminal HA or FLAG tag; experiment: LCCA (SPR tag readout), L1:L2 DNA 1:9, normalized to 1:1; competing light chain m16
[38] = molecular target: D3H44 light chain Q124K_T178R with N-terminal HA or FLAG tag; experiment: LCCA (SPR tag readout), L1:L2 DNA 1:9, normalized to 1:1; competing light chain m18
[39] = molecular target: D3H44 light chain T178R with N-terminal HA or FLAG tag; experiment: as above
[40] = molecular target: D3H44 light chain Q124E_Q160E_T180E with N-terminal HA or FLAG tag; experiment: LCCA (SPR tag readout), L1:L2 DNA 1:9, normalized to 1:1; competing light chain m19

Question: With “D3H44 Fab heavy chain L143E_K145T_Q179D with C-terminal ABD2-His6 tag” as the substance, how does the H1L1:H1L2 normalized median ratio [1] read?
Answer: 13%

Question: What about the H1L1:H1L2 normalized median ratio [2] of the same substance?
Answer: 24%

Question: And the H1L1:H1L2 normalized median ratio [3]?
Answer: 18%

Question: What about the H1L1:H1L2 normalized median ratio [4] of the same substance?
Answer: 15%

Question: And the H1L1:H1L2 normalized median ratio [5]?
Answer: 85%

Question: And the H1L1:H1L2 normalized median scalar value ln(r1/f1) [5]?
Answer: 1.74

Question: What about the H1L1:H1L2 normalized median ratio [6] of the same substance?
Answer: 69%

Question: What about the H1L1:H1L2 normalized median scalar value ln(r1/f1) [6] of the same substance?
Answer: 0.79

Question: What about the H1L1:H1L2 normalized median ratio [7] of the same substance?
Answer: 84%

Question: And the H1L1:H1L2 normalized median scalar value ln(r1/f1) [7]?
Answer: 1.63

Question: What about the H1L1:H1L2 normalized median ratio [8] of the same substance?
Answer: 76%

Question: What about the H1L1:H1L2 normalized median scalar value ln(r1/f1) [8] of the same substance?
Answer: 1.14

Question: What about the H1L1:H1L2 normalized median ratio [9] of the same substance?
Answer: 31%

Question: And the H1L1:H1L2 normalized median ratio [10]?
Answer: 11%

Question: What about the H1L1:H1L2 normalized median ratio [11] of the same substance?
Answer: 16%

Question: And the H1L1:H1L2 normalized median ratio [12]?
Answer: 89%

Question: And the H1L1:H1L2 normalized median scalar value ln(r1/f1) [12]?
Answer: 2.08

Question: And the H1L1:H1L2 normalized median ratio [13]?
Answer: 87%

Question: What about the H1L1:H1L2 normalized median scalar value ln(r1/f1) [13] of the same substance?
Answer: 1.9

Question: And the H1L1:H1L2 normalized median ratio [14]?
Answer: 11%

Question: And the H1L1:H1L2 normalized median ratio [15]?
Answer: 89%

Question: And the H1L1:H1L2 normalized median scalar value ln(r1/f1) [15]?
Answer: 2.05

Question: And the H1L1:H1L2 normalized median ratio [16]?
Answer: 22%

Question: And the H1L1:H1L2 normalized median ratio [17]?
Answer: 78%

Question: And the H1L1:H1L2 normalized median scalar value ln(r1/f1) [17]?
Answer: 1.28

Question: What about the H1L1:H1L2 normalized median ratio [18] of the same substance?
Answer: 82%

Question: What about the H1L1:H1L2 normalized median scalar value ln(r1/f1) [18] of the same substance?
Answer: 1.55

Question: “D3H44 Fab heavy chain L143E_K145T_Q179E with C-terminal ABD2-His6 tag” was tested. Which H1L1:H1L2 normalized median ratio [19] did it give?
Answer: 14%

Question: And the H1L1:H1L2 normalized median ratio [20]?
Answer: 8%

Question: What about the H1L1:H1L2 normalized median ratio [2] of the same substance?
Answer: 15%

Question: And the H1L1:H1L2 normalized median ratio [21]?
Answer: 8%

Question: What about the H1L1:H1L2 normalized median ratio [22] of the same substance?
Answer: 15%

Question: What about the H1L1:H1L2 normalized median ratio [23] of the same substance?
Answer: 8%

Question: And the H1L1:H1L2 normalized median ratio [24]?
Answer: 17%

Question: And the H1L1:H1L2 normalized median ratio [25]?
Answer: 12%

Question: And the H1L1:H1L2 normalized median ratio [26]?
Answer: 92%

Question: And the H1L1:H1L2 normalized median scalar value ln(r1/f1) [26]?
Answer: 2.46

Question: And the H1L1:H1L2 normalized median ratio [27]?
Answer: 86%

Question: What about the H1L1:H1L2 normalized median scalar value ln(r1/f1) [27] of the same substance?
Answer: 1.83

Question: What about the H1L1:H1L2 normalized median ratio [28] of the same substance?
Answer: 12%

Question: What about the H1L1:H1L2 normalized median ratio [4] of the same substance?
Answer: 30%

Question: What about the H1L1:H1L2 normalized median ratio [5] of the same substance?
Answer: 70%

Question: And the H1L1:H1L2 normalized median scalar value ln(r1/f1) [5]?
Answer: 0.84

Question: And the H1L1:H1L2 normalized median ratio [6]?
Answer: 73%

Question: And the H1L1:H1L2 normalized median scalar value ln(r1/f1) [6]?
Answer: 1

Question: And the H1L1:H1L2 normalized median ratio [7]?
Answer: 84%

Question: And the H1L1:H1L2 normalized median scalar value ln(r1/f1) [7]?
Answer: 1.69

Question: What about the H1L1:H1L2 normalized median ratio [8] of the same substance?
Answer: 85%

Question: And the H1L1:H1L2 normalized median scalar value ln(r1/f1) [8]?
Answer: 1.75

Question: What about the H1L1:H1L2 normalized median ratio [9] of the same substance?
Answer: 27%

Question: And the H1L1:H1L2 normalized median ratio [11]?
Answer: 16%

Question: What about the H1L1:H1L2 normalized median ratio [29] of the same substance?
Answer: 92%

Question: What about the H1L1:H1L2 normalized median scalar value ln(r1/f1) [29] of the same substance?
Answer: 2.41

Question: What about the H1L1:H1L2 normalized median ratio [30] of the same substance?
Answer: 88%

Question: And the H1L1:H1L2 normalized median scalar value ln(r1/f1) [30]?
Answer: 2

Question: What about the H1L1:H1L2 normalized median ratio [31] of the same substance?
Answer: 89%

Question: And the H1L1:H1L2 normalized median scalar value ln(r1/f1) [31]?
Answer: 2.14

Question: What about the H1L1:H1L2 normalized median ratio [32] of the same substance?
Answer: 11%

Question: And the H1L1:H1L2 normalized median ratio [33]?
Answer: 92%

Question: What about the H1L1:H1L2 normalized median scalar value ln(r1/f1) [33] of the same substance?
Answer: 2.45

Question: And the H1L1:H1L2 normalized median ratio [34]?
Answer: 85%

Question: And the H1L1:H1L2 normalized median scalar value ln(r1/f1) [34]?
Answer: 1.77

Question: What about the H1L1:H1L2 normalized median ratio [35] of the same substance?
Answer: 12%

Question: What about the H1L1:H1L2 normalized median ratio [36] of the same substance?
Answer: 83%

Question: What about the H1L1:H1L2 normalized median scalar value ln(r1/f1) [36] of the same substance?
Answer: 1.59

Question: What about the H1L1:H1L2 normalized median ratio [37] of the same substance?
Answer: 88%

Question: What about the H1L1:H1L2 normalized median scalar value ln(r1/f1) [37] of the same substance?
Answer: 1.96

Question: What about the H1L1:H1L2 normalized median ratio [38] of the same substance?
Answer: 88%

Question: What about the H1L1:H1L2 normalized median scalar value ln(r1/f1) [38] of the same substance?
Answer: 2.02

Question: And the H1L1:H1L2 normalized median ratio [39]?
Answer: 75%

Question: What about the H1L1:H1L2 normalized median scalar value ln(r1/f1) [39] of the same substance?
Answer: 1.1

Question: What about the H1L1:H1L2 normalized median ratio [40] of the same substance?
Answer: 25%
